The record followed here is publication PMC11952088 (Science Advances, 2025).

The target of the assay is SARS-CoV-2 XBB.1.5 RBD (BLI) (SARS-CoV-2, Omicron XBB.1.5, strain). Briefly: BLI. The settings on record: both partners purified.

B1: AZD3152 (antibody, V domains shown)
VH: EVQLVESGGGLVQPGRSLRLSCAASGFPFDDYAIHWVRLAPGKGLEWVSSISWDSGSIGYADSVKGRFTISRDNAKNSLYLQMNSLRAEDTALYYCAKGAFPGYSSGWYYGLEVWGQGTTVTVSS
VL: QSVVTQPPSASGSLGQSVTISCTGTSSDVGGYNYVSWYQQHPGKAPKLMIFEVSKRPSGVPDRFSGSKSGNTASLTVSGLQAEDEADYYCSSYAGNKGVFGGGTKLTVL
By Kd is commonly meant the free concentration of one partner at which half of the binding sites on the other are occupied at equilibrium, for simple one-to-one binding. Low readings indicate tighter binding, high ones weaker binding. As to B1, binding was characterised by a dissociation constant (Kd) of 2 nM.
